Test results as given in paper PMC3706390.

Key:
L30 E110A = L30 E110A (rat, UniProt P62890 1-115, E110A); experiment: EMSA; comparable to WT; 30 mM Tris-HCl pH 8.0, 75 mM KCl, 5 mM MgCl2, 1 mM DTT, 0.04 ug/uL BSA, 10% glycerol, 50 ng/uL yeast tRNA, 30 C 15 min; EMSA gels 0.5X TBE at 4 C; RNase digesti
L30 V91A = L30 V91A (rat, UniProt P62890 1-115, V91A); experiment: as above
L30 L29A = L30 L29A (rat, UniProt P62890 1-115, L29A); experiment: as above
L30 M108A = L30 M108A (rat, UniProt P62890 1-115, M108A); experiment: as above
L30 K87A = L30 K87A (rat, UniProt P62890 1-115, K87A); experiment: EMSA; little effect vs WT; 30 mM Tris-HCl pH 8.0, 75 mM KCl, 5 mM MgCl2, 1 mM DTT, 0.04 ug/uL BSA, 10% glycerol, 50 ng/uL yeast tRNA, 30 C 15 min; EMSA gels 0.5X TBE at 4 C; RNase digesti
L30 K36A = L30 K36A (rat, UniProt P62890 1-115, K36A); experiment: EMSA; reduced by 60%; 30 mM Tris-HCl pH 8.0, 75 mM KCl, 5 mM MgCl2, 1 mM DTT, 0.04 ug/uL BSA, 10% glycerol, 50 ng/uL yeast tRNA, 30 C 15 min; EMSA gels 0.5X TBE at 4 C; RNase digesti
L30 Y89A = L30 Y89A (rat, UniProt P62890 1-115, Y89A); experiment: EMSA; L30 at 50% WT binding; 30 mM Tris-HCl pH 8.0, 75 mM KCl, 5 mM MgCl2, 1 mM DTT, 0.04 ug/uL BSA, 10% glycerol, 50 ng/uL yeast tRNA, 30 C 15 min; EMSA gels 0.5X TBE at 4 C; RNase digesti
L30 L35A = L30 L35A (rat, UniProt P62890 1-115, L35A); experiment: EMSA; reduced by 14%, significant; 30 mM Tris-HCl pH 8.0, 75 mM KCl, 5 mM MgCl2, 1 mM DTT, 0.04 ug/uL BSA, 10% glycerol, 50 ng/uL yeast tRNA, 30 C 15 min; EMSA gels 0.5X TBE at 4 C; RNase digesti

GGGACCGGAGUGUCGCAAGACGCAGAGAUGGUCC (structured_RNA) [L30 RNA (stem-loop of L30 pre-mRNA)]
binding result (L30 E110A): binds
binding result (L30 V91A): binds
binding result (L30 L29A): binds
binding result (L30 M108A): binds
binding result (L30 K87A): binds
binding signal (L30 K36A): 40 % of WT binding
binding signal (L30 Y89A): 37 % of WT binding
binding signal (L30 L35A): 86 % of WT binding
